# Results as given in article PMC5673899, “Structural basis for receptor recognition of pollen tube attraction peptides” (Nature Communications, 2017).
# “Also recorded” adds a separate entry of the source.
# Key:
# [1] = system: prk6 pollen tubes transformed with PRK6 ΔN239I240; experiment: Gelatin-beads assay, prk6 pollen tubes transformed with ΔN239I240 PRK6; type: cell-based, Arabidopsis; conditions: beads with 250 nM wild-type AtLURE1.2; 10–23 pollen tubes per assay, three assays
# Experimental: (§1) Attraction activities of mutant AtLURE1.2 peptides were examined for semi-in-vivo pollen tubes growing through cut, pollinated pistils by gelatin-beads assay and wavy assay, [20]. For the gelatin-beads assay, pollen tubes were grown on solid pollen germination medium poured into a mold made with 1-mm thick silicone rubber and cover glasses. After hand-pollination, the topside cover glass was removed and the medium was covered with hydrated silicone oil (KF-96–100CS; Shin-Etsu). Attraction of pollen tubes toward the peptide was evaluated using AtLURE1 peptide containing gelatine beads under an inverted microscope (IX71, Olympus) equipped with a micro-manipulator (Narishige). For the AtLURE1-responsive wavy assay, the purified AtLURE1.2 peptide was added to solid pollen germination medium, which was melted at 70 °C and then cooled to a certain degree. The mixture was mixed by vortexing and poured into the mold. Pollen tubes of each genotype were grown through cut styles, as mentioned above. Each peptide (25 μM in 10 mM Bis-Tris (pH 6.0) and 100 mM NaCl) was diluted to 250 nM by cultivation medium in both assays. To examine reactivity of PRK6 mutants to AtLURE1.2, constructs for PRK6 mutants, D234A, N239A, and ΔN239I240, were generated by site-directed mutagenesis from a wild-type PRK6 vector, pPZP221-pPRK6::PRK6-mRuby2 (ref. [20]). […]
# [2] = system: prk6 pollen tubes transformed with PRK6 of wild-type; experiment: Gelatin-beads assay, prk6 pollen tubes transformed with wild-type PRK6; type: cell-based, Arabidopsis; conditions: beads with 250 nM wild-type AtLURE1.2; 10–23 pollen tubes per assay, three assays
# Experimental: as §1
# [3] = system: semi-in-vivo pollen tubes (wild type); experiment: AtLURE-responsive wavy assay, wild-type pollen tubes; type: cell-based, Arabidopsis; conditions: 250 nM peptide in solid pollen germination medium
# Experimental: as §1, with “assays.” for “assays. To examine reactivity of PRK6 mutants to AtLURE1.2, constructs for PRK6 mutants, D234A, N239A, and ΔN239I240, were generated by site-directed mutagenesis from a wild-type PRK6 vector, pPZP221-pPRK6::PRK6-mRuby2 (ref. [20]).”
# pollen tubes. Fluorescence is from mRuby2 fused to the C-terminal of PRK6 receptors, showing that all of mutant PRK6 receptors localize normally to the plasma membrane of the pollen tube tip. […]
# PRK6 N239A = experiment: In vitro pull-down with AtPRK6^LRR mutant N239A; type: binding, Arabidopsis thaliana
# Description: The genes of AtPRK3 ^LRR (residues 1–241), AtPRK4 ^LRR (residues 1–277), AtPRK5 ^LRR (residues 1–279), AtPRK6 ^LRR (residues 1–262), MIK1 ^LRR (residues 1–633), MIK2 ^LRR (residues 1–707) were amplified from Arabidopsis cDNA library by PCR and cloned into pFastBac-1 vector with a C-terminal 6 × His-tag. Their identities were confirmed by sequencing. The mature form of AtLURE1.1 (residues 20–94), AtLURE1.2 (residues 20–90), AtLURE1.3 (residues 21–91), and AtLURE1.4 (residues 20–90) were cloned into pFastBac-1 vector, with a modified N-terminal hemolin signal peptide and 6 × His-SUMO tag. Point mutation constructs were generated by QuickChange Site-Directed Mutagenesis Kit (Strategene). All the proteins were expressed using the Bac-to-Bac baculovirus expression system (Invitrogen) in High Five cells at 22 °C. One liter of High Five cells (2.0 × 10^6 cells mL^−1) cultured in the medium from Expression Systems was infected with 25 ml recombinant baculovirus and the media was collected after 72 h of infection. Secreted LRR proteins were purified using Ni-NTA (Novagen) and size-exclusion chromatography (Hiload 200, GE Healthcare) in buffer containing 10 mM Bis-Tris pH 6.0 and 100 mM NaCl. […]
# The purified His-tagged ectodomains of AtPRK proteins and MIK1, 2 were used to pull-down the AtLURE1.2 peptide. […] All the eluted samples were analyzed by SDS-PAGE and visualized by Coomassie blue staining. […]
molecule,measurement,setting,value
"AtLURE1.2: mature form of AtLURE1.2 (residues 20–90), defensin-like cysteine-rich peptide expressed in insect cells (protein, left off: His6, N-terminal, cleaved | SUMO, N-terminal, cleaved, mature form of AtLURE1.2 (residues 20–90), defensin-like cysteine-rich peptide expressed in insect cells) TLINGSSDEERTYSFSPTTSPFDPRSLNQELKIGRIGYCFDCARACMRRGKYIRTCSFERKLCRCSISDIK",pollen tube attraction,[1],significantly lower than those in wild-type and N239A PRK6 pollen tubes; also recorded: significantly reduced
same,pollen tube attraction,[2],attraction was normally observed
same,wavy pollen tube response,[3],caused pollen tube wavy response
same,AtLURE1.2 binding activity of receptor mutant,PRK6 N239A,still retained the AtLURE1.2 binding activity
